Laboratory results: the RNAGym collection of RNA variant scans (doi:10.1073/pnas.2313332121)
This sample holds only a part of the variants without activity.

B1: TPR 5TU (parent)
chain: GGAUCUUCUCGAUCUAACAAAAAAGACAAAUCUGCCACAAAGCUUGAGAGCAUCUUCGGAUGCAGAGGCGGCAGCCUUCGGUGGCGCGAUAGCGCCAACGUUCUCAACUAUGACACGCAAAACGCGUGCUCCGUUGAAUGGAGUUUAUCAUG

Variants of: B1
Experiment: polymerase ribozyme fitness, log enrichment relative to wild type (log ratio); higher = more active; in vitro selection for triplet polymerase activity
In short: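 PCR was used to build mutant libraries for each subunit of a heterodimeric triplet polymerase ribozyme, which were then transcribed. A single in vitro selection round, in triplicate, used a frozen incubation at −7 °C and recovered extended constructs by gel excision, streptavidin beads and RT-PCR. Fitness is the logarithm of genotype enrichment relative to wild-type enrichment, averaged over replicates with inverse-variance weights. The logarithm is base 2, and after Illumina sequencing only genotypes with ≥10 input reads and ≥1 read per output were kept.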

Variant	polymerase ribozyme fitness (log ratio)
GGAUCUUCUCGAUCAAACAUAAGAGACAAAUCUGCCGCAAAGCUUGAGAGCAUCUUCGGAUGCAGAGCCGGCAGCCUUCGGUGGCGCGAUAGCGCUAACGUUCUCAACUAUGACACGCAAAACGCGUGGUCCGUUGAAUGGAGAUUAUCAUG [U15A A20U A23G A37G G68C C96U C129G U144A]	≤ -4.2
GGAUCUUCUCGAUCAAACAAAAAAGACAAAUCUGCCACAAAGCUUGAGAGCAUCUUCGGAUGCAGAGGCGGCAGCCUUCGGUGGCGCGAUAGCGCCAACGUUCUCAACUAUGACACGCAAAACGCGUGCUCCGUUGAAUGGCGUUUUUCAUG [U15A A142C A147U]	-1.65
GGAUCUUCUCGAUCAAACAAAAAGGACAAAUCUGCCACAAAGCUUGAGAGCAUCUUCGGAUGCAGAGGCGGCAGCCUUCGGUGGCGCGAUAGCGCCAGAGUUCUCAACUAUGACACGCAAAACGCGUGCUCCGUUGAAUGGAGUUUAUCAUG [U15A A24G A98G C99A]	≤ -4.2
GGAUCUUCUCGAUCAAACAAAAAAGGCAAAUCUGCCACAAAGCUUGAGAGCAUCUUCGGAUGCAGAGGCGGCAGCCGUCGGUGGCGCGAUAGCGACAACGUUCUCAACUAUGACACGCAAAACGCGUGCUCCGUUGAAUGGAGUUUAUCAUG [U15A A26G U77G C95A]	≤ -4.2
GGAUCUUCUCGAUCAAAGAAAAAAGACAAAUCUGCCACAAAGCUUGAGAGCAUCUUCGGAUGCAGAGGCGGCAGCCUUCGGUGGCGCGAUAGCGCCAACGUUCUCAACUAUGACACGCAAAACGCGUGCUCCGUUGAAUGGAGUUGAUCAUG [U15A C18G U146G]	-0.119
GGAUCUUCUCGAUUUAACAAAAAAGACAAAUCUGCCACAAAGCUUGAGAGCAUCUUCGGAUGCAGAGGCGGCAGCCUUCGGUGGCGCGAUAGCGCCAACGUUCUCAACUAUGACACGCAAAACGCGUGCUCCGUUGAAUGGAGUUGAUCAUG [C14U U146G]	-1.34
GGAUCUUCUCGAUCAAACACAAAAGACAAAUCUGCCACAAAGCUUGAGAGCAUCUUCGGAUGCAGAGGCGGCAGCUUUCGGGGGCGCGAUUGCGCCAACGUUCUCAACUAUGACACGAAAAACGCGUGCUCCGUUGAAUCGAGUUUAUCAUG [U15A A20C C76U U82G A91U C118A G140C]	≤ -4.2
GGAUCUUCUCGAUCAAACCAAAUAGACAAAUCUGCCACAAAGCUUCAGAGCAGCUUAGGAUGCAGAGACGACAGCCUUCGGUGGCGCGAUAGGGCCAACGUUCUCAACUAGGACACGCAAAACGCGUGCUCCGUUGAAUGUAGUUUAUCAUG [U15A A19C A23U G46C U53G C57A G68A G71A C93G U111G G141U]	≤ -4.2
GGAUCUUCUCGAUCAAACAAAAAAGACAAAUCUGCCACAGAGCUUGAGAGCAUCAUCGGUUGCAGAGGCGGCAGCCUUCGGUGGCGCGAUAGCGCCAACGUUCUCAACUAUGAAACGCAAAACGCGUGCUCCGUUGAAUGGAGUUUAUCAUG [U15A A40G U55A A60U C114A]	≤ -4.2
GGAUCUUCUCGAUCAAACAAAAAAGACAAAUCUGCCACAAAGCUUGAGAGCAUCUUCGGAUGCAGAGGCGGCAGCCUUCGGUGACGCGAUAGAGCCAACGUUCUCAACUAUGACACGCAAAACGCGUGCUCCGGUGAAUGGAGUUUAUCAUG [U15A G84A C93A U134G]	-4.09
GGAUCUUCUCGAUCAAACAAAAAAGACAAAUCUGCCACAAAGCUUGAGAGCAUCAACGGAUGCAGAGGUGGCAGCCUUUGGUGGCACGAUUGCGCCAACGUUCUCCACUAUGACACGCAAGACGUGUGCUCCGUUGAAUGGCGUUUAUCAUG [U15A U55A U56A C69U C79U G86A A91U A106C A121G C125U A142C]	≤ -4.2
GGAUCUUCUCGAUCAAACAAAAAAGACAAAUCUGCCACAAAGCUUGAGAGCAUCAUCGGAUGCAGAGGCGGCAGCCUUCGGUGGCGCGAUAGCGCCAAGGUUCUCAACUAUGACACGCAAAACGCGUGCUCCGUUGAAUGGAGUUUAUCAUG [U15A U55A C99G]	-1.2
GGAUCUUCUCGAUCAAACAAACAAGACAAAUCUGCCACACAGCUUGAGAGCAUCUUCGGGUGCAGAGGCGGCAGCCUUCGGUGGCGCGAUAGCGCCAACGUUCUCAACUAUGACACGCAAAACGCGUGCUCCGUUGAAUGGAGUUUAUCAUG [U15A A22C A40C A60G]	0.68
GGAUCUUCUCGAUCAAACAAAAAAGACAAAUCUGCCACAAAGCUUGAGAGCAUCUUCGGAUGCAGAGGCGGCAGGCUUCGGUGGCGCGAUAGCGUCAACGUUCUCAACUAUGACACGCAAAACGCGUGCUCCGUUGAAUGGCGUUUAUCAUG [U15A C75G C95U A142C]	≤ -4.2
GGAUCUUCUCGAUCAAACAAAAAAUACAAAUCUGCCACAAAGCUUGAGAGCAUCUUCGGGUGCAGAGGCGGCAAACUUCGGUGGCGCGAUAGCGCCAACGUUCUCAACUAUGACACGCAAAACGCGUGCUCCGUUGAAUGGUGUUUAUCAUG [U15A G25U A60G G74A C75A A142U]	≤ -4.2
GGAUCUUCUCGAUCAAACAAAAAAGACUAAUCUACCACAAAGCUUGUGAGCAUCUUCGGAUGCAGAGGCGGCAGCCUUCGGUGGCGCGAUAGCGCUAACGUUCUCAACUAUGACACACAAAACGCGUGCUCCGUUGAAUGGAGUUUAUCAUG [U15A A28U G34A A47U C96U G117A]	≤ -4.2
GGAUCUUCUCGAUUUAACAAAAAAGACAAAUCUGCCACAAAGCUUGAGAGCAACUUCGGAUGCAGAGGCGGCAGCCUUCGGUGGCGCGAUAGCGCCAACGUUCUCAACUAUGACACGCAAAACGCGUGCUCCGUUGAAUGGAGUUUAUCAUG [C14U U53A]	-2.41
GGAUCUUCUCGAUUUAACAAAAAAGACAAAUCUGCCACAAAGCUUGAGAGCAUCGUCGGAUGCAGAGGCGGCAGCCUUCGGUGGCGCGAUAGCGCCAACGUUCUCAACUAUGACACGCAAAACGCGUGCUCCGUUGAAUGGAGUUUAUCAUG [C14U U55G]	-1.61
GGAUCUUCUCGAUCAAACAAAAAAGACAAAUCUGCCACAAAUCUUGAGAGCAUCUUCGGAUGCAGAGGCGGCAGCCUUCGGUGGCGGGAUAGCACCAAGGUUCUCAACUAUGACACGCAAAACGUGUGCUCCGUUGAAUGGAGUUUAACAUG [U15A G42U C87G G94A C99G C125U U148A]	≤ -4.2
